Substitutions are numbered along the chain they refer to. Names and notes keep the numbering of the source.
B1: FLAG-tagged ZAPL C88R (ZnF 2 mutant) (natural protein, human, UniProt Q7Z2W4-1 1-902, looked up)
chain: MADPEVCCFITKILCAHGGRMALDALLQEIALSEPQLCEVLQVAGPDRFVVLETGGEAGITRSVVATTRARVCRRKYCQRPCDNLHLRKLNLLGRCNYSQSERNLCKYSHEVLSEENFKVLKNHELSGLNKEELAVLLLQSDPFFMPEICKSYKGEGRQQICNQQPPCSRLHICDHFTRGNCRFPNCLRSHNLMDRKVLAIMREHGLNPDVVQNIQDICNSKHMQKNPPGPRAPSSHRRNMAYRARSKSRDRFFQGSQEFLASASASAERSCTPSPDQISHRASLEDAPVDDLTRKFTYLGSQDRARPPSGSSKATDLGGTSQAGTSQRFLENGSQEDLLHGNPGSTYLASNSTSAPNWKSLTSWTNDQGARRKTVFSPTLPAARSSLGSLQTPEAVTTRKGTGLLSSDYRIINGKSGTQDIQPGPLFNNNADGVATDITSTRSLNYKSTSSGHREISSPRIQDAGPASRDVQATGRIADDADPRVALVNDSLSDVTSTTSSRVDDHDSEEICLDHLCKGCPLNGSCSKVHFHLPYRWQMLIGKTWTDFEHMETIEKGYCNPGIHLCSVGSYTINFRVMSCDSFPIRRLSTPSSVTKPANSVFTTKWIWYWKNESGTWIQYGEEKDKRKNSNVDSSYLESLYQSCPRGVVPFQAGSRNYELSFQGMIQTNIASKTQKDVIRRPTFVPQWYVQQMKRGPDHQPAKTSSVSLTATFRPQEDFCFLSSKKYKLSEIHHLHPEYVRVSEHFKASMKNFKIEKIKKIENSELLDKFTWKKSQMKEEGKLLFYATSRAYVESICSNNFDSFLHETHENKYGKGIYFAKDAIYSHKNCPYDAKNVVMFVAQVLVGKFTEGNITYTSPPPQFDSCVDTRSNPSVFVIFQKDQVYPQYVIEYTEDKACVIS
notes: zinc finger antiviral protein (ZAP), long isoform ZAPL, cloned from pTRIP-TagRFP-hZAPL; source: ZAP KO 293T cells, transfected (pcDNA3.1-3XFLAG), in lysate; not shown: 3XFLAG, N-terminal, kept
B2: FLAG-tagged ZAPL H191R (ZnF 4 mutant) (natural protein, human, UniProt Q7Z2W4-1 1-902, looked up)
chain: B1 chain with R88C, H191R
notes: as for B1
B3: FLAG-tagged ZAPL C96A/Y98A (natural protein, human, UniProt Q7Z2W4-1 1-902, looked up)
chain: B1 chain with R88C, C96A, Y98A
notes: zinc finger antiviral protein (ZAP), long isoform ZAPL, cloned from pTRIP-TagRFP-hZAPL; also called ZAPL CY; CY; source: ZAP KO 293T cells, transfected (pcDNA3.1-3XFLAG), in lysate; not shown: 3XFLAG, N-terminal, kept
B4: FLAG-tagged ZAPL H176A/F184A/R189A (natural protein, human, UniProt Q7Z2W4-1 1-902, looked up)
chain: B1 chain with R88C, H176A, F184A, R189A
notes: zinc finger antiviral protein (ZAP), long isoform ZAPL, cloned from pTRIP-TagRFP-hZAPL; also called ZAPL HFR; HFR; source: ZAP KO 293T cells, transfected (pcDNA3.1-3XFLAG), in lysate; not shown: 3XFLAG, N-terminal, kept
B5: FLAG-tagged ZAPL K107A/Y108A (natural protein, human, UniProt Q7Z2W4-1 1-902, looked up)
chain: B1 chain with R88C, K107A, Y108A
notes: zinc finger antiviral protein (ZAP), long isoform ZAPL, cloned from pTRIP-TagRFP-hZAPL; also called ZAPL KY; KY; source: ZAP KO 293T cells, transfected (pcDNA3.1-3XFLAG), in lysate; not shown: 3XFLAG, N-terminal, kept
B6: FLAG-tagged ZAPL V72A/Y108A/F144A (natural protein, human, UniProt Q7Z2W4-1 1-902, looked up)
chain: B1 chain with V72A, R88C, Y108A, F144A
notes: zinc finger antiviral protein (ZAP), long isoform ZAPL, cloned from pTRIP-TagRFP-hZAPL; also called ZAPL VYF; VYF; source: ZAP KO 293T cells, transfected (pcDNA3.1-3XFLAG), in lysate; not shown: 3XFLAG, N-terminal, kept
B7: FLAG-tagged ZAPL E148A/K151A/R170A (natural protein, human, UniProt Q7Z2W4-1 1-902, looked up)
chain: B1 chain with R88C, E148A, K151A, R170A
notes: zinc finger antiviral protein (ZAP), long isoform ZAPL, cloned from pTRIP-TagRFP-hZAPL; also called ZAPL EKR; EKR; source: ZAP KO 293T cells, transfected (pcDNA3.1-3XFLAG), in lysate; not shown: 3XFLAG, N-terminal, kept
B8: FLAG-tagged ZAPS C88R (ZnF 2 mutant) (natural protein, human, UniProt Q7Z2W4-2 1-699, looked up)
chain: MADPEVCCFITKILCAHGGRMALDALLQEIALSEPQLCEVLQVAGPDRFVVLETGGEAGITRSVVATTRARVCRRKYCQRPCDNLHLRKLNLLGRCNYSQSERNLCKYSHEVLSEENFKVLKNHELSGLNKEELAVLLLQSDPFFMPEICKSYKGEGRQQICNQQPPCSRLHICDHFTRGNCRFPNCLRSHNLMDRKVLAIMREHGLNPDVVQNIQDICNSKHMQKNPPGPRAPSSHRRNMAYRARSKSRDRFFQGSQEFLASASASAERSCTPSPDQISHRASLEDAPVDDLTRKFTYLGSQDRARPPSGSSKATDLGGTSQAGTSQRFLENGSQEDLLHGNPGSTYLASNSTSAPNWKSLTSWTNDQGARRKTVFSPTLPAARSSLGSLQTPEAVTTRKGTGLLSSDYRIINGKSGTQDIQPGPLFNNNADGVATDITSTRSLNYKSTSSGHREISSPRIQDAGPASRDVQATGRIADDADPRVALVNDSLSDVTSTTSSRVDDHDSEEICLDHLCKGCPLNGSCSKVHFHLPYRWQMLIGKTWTDFEHMETIEKGYCNPGIHLCSVGSYTINFRVMSCDSFPIRRLSTPSSVTKPANSVFTTKWIWYWKNESGTWIQYGEEKDKRKNSNVDSSYLESLYQSCPRGVVPFQAGSRNYELSFQGMIQTNIASKTQKDVIRRPTFVPQWYVQQMKRGPE
notes: zinc finger antiviral protein (ZAP), short isoform ZAPS, cloned from pTRIP-TagRFP-hZAPS; source: ZAP KO 293T cells, transfected (pcDNA3.1-3XFLAG), in lysate; not shown: 3XFLAG, N-terminal, kept
B9: FLAG-tagged ZAPS K107A/Y108A (natural protein, human, UniProt Q7Z2W4-2 1-699, looked up)
chain: B8 chain with R88C, K107A, Y108A
notes: zinc finger antiviral protein (ZAP), short isoform ZAPS, cloned from pTRIP-TagRFP-hZAPS; also called ZAPS KY; KY; source: ZAP KO 293T cells, transfected (pcDNA3.1-3XFLAG), in lysate; not shown: 3XFLAG, N-terminal, kept
B10: FLAG-tagged ZAPS C96A/Y98A (natural protein, human, UniProt Q7Z2W4-2 1-699, looked up)
chain: B8 chain with R88C, C96A, Y98A
notes: zinc finger antiviral protein (ZAP), short isoform ZAPS, cloned from pTRIP-TagRFP-hZAPS; also called ZAPS CY; CY; source: ZAP KO 293T cells, transfected (pcDNA3.1-3XFLAG), in lysate; not shown: 3XFLAG, N-terminal, kept
B11: FLAG-tagged ZAPS E148A/K151A/R170A (natural protein, human, UniProt Q7Z2W4-2 1-699, looked up)
chain: B8 chain with R88C, E148A, K151A, R170A
notes: zinc finger antiviral protein (ZAP), short isoform ZAPS, cloned from pTRIP-TagRFP-hZAPS; also called ZAPS EKR; EKR; source: ZAP KO 293T cells, transfected (pcDNA3.1-3XFLAG), in lysate; not shown: 3XFLAG, N-terminal, kept
B12: FLAG-tagged ZAPS H176A/F184A/R189A (natural protein, human, UniProt Q7Z2W4-2 1-699, looked up)
chain: B8 chain with R88C, H176A, F184A, R189A
notes: zinc finger antiviral protein (ZAP), short isoform ZAPS, cloned from pTRIP-TagRFP-hZAPS; also called ZAPS HFR; HFR; source: ZAP KO 293T cells, transfected (pcDNA3.1-3XFLAG), in lysate; not shown: 3XFLAG, N-terminal, kept
B13: FLAG-tagged ZAPS V72A/Y108A/F144A (natural protein, human, UniProt Q7Z2W4-2 1-699, looked up)
chain: B8 chain with V72A, R88C, Y108A, F144A
notes: zinc finger antiviral protein (ZAP), short isoform ZAPS, cloned from pTRIP-TagRFP-hZAPS; also called ZAPS VYF; VYF; source: ZAP KO 293T cells, transfected (pcDNA3.1-3XFLAG), in lysate; not shown: 3XFLAG, N-terminal, kept
B14: FLAG-tagged ZAPS H191R (ZnF 4 mutant) (natural protein, human, UniProt Q7Z2W4-2 1-699, looked up)
chain: B8 chain with R88C, H191R
notes: as for B8

How the values were obtained:
[1] = molecular target: T1, myc-tagged TRIM25 WT (tripartite motif-containing protein 25) (UniProt Q14258 1-630); assay: cell-based or functional assay
[2] = molecular target: T1, myc-tagged TRIM25 WT (tripartite …); assay: co-IP; myc IP (anti-myc beads) of myc-TRIM25 WT from lysates of ZAP KO 293T cells co-transfected with FLAG-ZAPS or FLAG-ZAPL WT or mutants; FLAG-ZAP detected by immunoblot; FLAG IP buffer (100 mM Tris-HCl 8.0, 150 mM NaCl, 5 mM EDTA, 1 mM DTT, 5% glycerol, 0.1% NP-40), 4°C, 45 min; FLAG IP band divided by myc IP band (ImageJ); settings: partners not purified

T1 sequence (Q14258 whole entry): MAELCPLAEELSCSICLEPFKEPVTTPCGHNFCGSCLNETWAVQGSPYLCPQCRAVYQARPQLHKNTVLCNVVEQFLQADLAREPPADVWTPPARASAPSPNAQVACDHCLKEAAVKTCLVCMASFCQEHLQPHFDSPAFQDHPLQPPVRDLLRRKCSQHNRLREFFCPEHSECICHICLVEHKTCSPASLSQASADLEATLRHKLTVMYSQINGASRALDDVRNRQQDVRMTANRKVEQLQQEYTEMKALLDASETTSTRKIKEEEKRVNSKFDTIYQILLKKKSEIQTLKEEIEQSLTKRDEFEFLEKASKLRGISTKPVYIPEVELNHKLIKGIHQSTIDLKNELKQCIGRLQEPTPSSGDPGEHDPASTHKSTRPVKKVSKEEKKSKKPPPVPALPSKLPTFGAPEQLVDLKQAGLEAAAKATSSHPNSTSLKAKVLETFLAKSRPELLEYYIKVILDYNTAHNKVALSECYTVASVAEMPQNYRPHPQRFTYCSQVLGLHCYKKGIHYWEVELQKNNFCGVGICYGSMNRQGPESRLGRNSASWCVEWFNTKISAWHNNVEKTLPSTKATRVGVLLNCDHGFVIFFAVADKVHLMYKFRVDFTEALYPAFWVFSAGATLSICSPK

Row | Binder | JEV translation inhibition: fold inhibition of Renilla luciferase from a replication-defective JEV replicon, relative to empty plasmid, ZAP KO 293T cells, 4 h after replicon transfection [1] | ZAP-TRIM25 interaction (co-IP, FLAG-ZAP band over myc-TRIM25 band, ImageJ) [2]
1 | B1 | 5.19 fold inhibition relative to empty plasmid transfection | 1.13
2 | B2 | 9.05 fold inhibition relative to empty plasmid transfection | 0.899
3 | B3 |  | 0.329
4 | B4 |  | 0.03
5 | B5 |  | 0.086
6 | B6 |  | 0.574
7 | B7 |  | 0.196
8 | B8 |  | 0.45
9 | B9 |  | 0.33
10 | B10 |  | 0.55
11 | B11 |  | 0.189
12 | B12 |  | 0.205
13 | B13 |  | 0.792
14 | B14 | 2.18 fold inhibition relative to empty plasmid transfection | 1.05
